According to US6635421 (CHILDREN S MEDICAL CENTER, dated 2003):

T1: Human NP-2 (neuropilin-2) (human, UniProt O60462 21-931)
T1 sequence: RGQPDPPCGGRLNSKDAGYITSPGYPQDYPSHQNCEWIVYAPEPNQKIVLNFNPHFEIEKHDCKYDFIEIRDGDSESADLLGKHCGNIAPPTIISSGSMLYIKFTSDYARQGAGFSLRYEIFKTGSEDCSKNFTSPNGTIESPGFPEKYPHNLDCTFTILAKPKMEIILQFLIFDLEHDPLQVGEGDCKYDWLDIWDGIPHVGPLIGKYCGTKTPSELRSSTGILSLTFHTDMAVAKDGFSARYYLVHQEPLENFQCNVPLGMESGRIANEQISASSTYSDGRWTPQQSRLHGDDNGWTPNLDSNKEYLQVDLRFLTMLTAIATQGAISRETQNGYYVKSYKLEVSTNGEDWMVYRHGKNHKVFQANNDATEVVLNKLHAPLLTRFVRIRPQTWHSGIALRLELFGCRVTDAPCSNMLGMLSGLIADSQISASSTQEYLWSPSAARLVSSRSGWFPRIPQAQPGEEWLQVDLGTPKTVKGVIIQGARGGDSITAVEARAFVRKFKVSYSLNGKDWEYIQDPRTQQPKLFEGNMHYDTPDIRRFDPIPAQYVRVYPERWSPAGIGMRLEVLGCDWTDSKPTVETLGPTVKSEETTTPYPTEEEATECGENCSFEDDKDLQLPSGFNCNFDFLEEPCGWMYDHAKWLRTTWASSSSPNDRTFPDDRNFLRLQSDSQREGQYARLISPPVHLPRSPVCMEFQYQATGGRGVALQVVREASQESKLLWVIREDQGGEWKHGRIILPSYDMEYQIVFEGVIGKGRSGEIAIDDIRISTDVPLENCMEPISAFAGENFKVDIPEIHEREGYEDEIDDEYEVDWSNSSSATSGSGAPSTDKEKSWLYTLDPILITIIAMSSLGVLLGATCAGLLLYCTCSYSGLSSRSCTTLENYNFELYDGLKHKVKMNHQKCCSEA


Columns and labels:
[1] = target: T2, Human VEGF165R/NP-1 (VEGF165 receptor / neuropilin-1) (human, UniProt O14786 22-923); assay: cross-linking of 125I-VEGF121 to PAE/NP-1 cells, SDS-PAGE, autoradiography
T2 construct: 923 amino acid open reading frame; also called clone A2
Method: The binding was carried out in the presence of 1 μg/ml heparin. […] The cells were lysed and proteins were resolved by 6% SDS-PAGE. The polyacrylamide gel was dried and exposed to X-ray film.

[2] = target: T2, Human VEGF165R/NP-1 (VEGF165 receptor / …); assay: Scatchard analysis (LIGAND program) of 125I-VEGF165 binding to PAE/NP-1 cells
[3] = target: T2, Human VEGF165R/NP-1 (VEGF165 receptor / …); assay: Scatchard analysis of 125I-VEGF165 binding to independently generated PAE/NP-1 clones
[4] = target: T1, Human NP-2 (neuropilin-2); assay: expression cloning: COS-7 cells transfected with single clones screened for 125I-VEGF165 binding (seven positive clones, one of them NP-2)
Method: The E. coli were sub-divided into 50 separate pools and plated onto 50 LB ampicillin dishes, with each pool representing approximately 100 clones. […] The seven positive plasmid clones were amplified and their DNA was analyzed by restriction enzyme digestion. […] One clone from each group was submitted for automated DNA sequencing.

[5] = target: T2, Human VEGF165R/NP-1 (VEGF165 receptor / …); assay: cell-based or functional assay

| binding result [1] | Kd [2] | Kd [3] | binding result [4] | 231 breast carcinoma cell motility (Boyden chamber motility assay) [5] | Binder |
| --- | --- | --- | --- | --- | --- |
| no binding (tested: 10 ng/ml) | – | – | – | – | Human recombinant VEGF121 (ligand, UniProt P15692-9 27-147, looked up, radio-iodinated (125I, IODO-BEADS), mature) APMAEGGGQNHHEVVKFMDVYQRSYCHPIETLVDIFQEYPDEIEYIFKPSCVPLMRCGGCCNDEGLECVPTEESNITMQIMRIKPHQGQHIGEMSFLQHNKCECRPKKDRARQEKCDKPRR |
| – | 0.32 nM | 0.3 nM | binds | 2 fold | Human recombinant VEGF165 (ligand, UniProt P15692-4 27-191, looked up, radio-iodinated (125I, IODO-BEADS) in the binding and cross-linking experiments; unlabelled when coupled to Sepharose or used as competitor, mature) APMAEGGGQNHHEVVKFMDVYQRSYCHPIETLVDIFQEYPDEIEYIFKPSCVPLMRCGGCCNDEGLECVPTEESNITMQIMRIKPHQGQHIGEMSFLQHNKCECRPKKDRARQENPCGPCSERRKHLFVQDPQTCKCSCKNTDSRCKARQLELNERTCRCDKPRR |
